Data as given in patent CN116018351A (SHANGHAI YOUTI JISHENG BIOMEDICAL CO LTD, dated 2023).
Positions count from the first letter of the chain named.

T1: CD123-Fc重组蛋白 (human, UniProt P26951 19-305)
T1 construct: also called CD123-Fc蛋白; 人CD123-Fc; not shown: Fc part
T1 sequence: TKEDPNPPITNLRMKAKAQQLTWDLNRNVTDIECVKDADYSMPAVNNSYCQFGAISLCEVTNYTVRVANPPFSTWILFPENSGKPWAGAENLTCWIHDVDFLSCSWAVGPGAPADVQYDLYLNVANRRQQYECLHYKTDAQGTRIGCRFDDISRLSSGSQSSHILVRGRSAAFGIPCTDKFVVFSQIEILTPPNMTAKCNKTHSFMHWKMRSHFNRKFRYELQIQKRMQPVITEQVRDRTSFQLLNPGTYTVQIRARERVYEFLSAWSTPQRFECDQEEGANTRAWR

B1: 抗CD123 scFv-C4 (in a CAR on T cells) (scFv)
scFv: QSALTQPPSASGTPGQRVTISCSGSSSNIGSNYVNWYQQLPGTAPKLLIYRNNQRPSGVPDRFSGSKSGTSASLAISGLRSEDEADYYCAAWDDSLSGHGVFGTGTELTVLGGGGSGGGGSGGGGSQVQLVQSGPEVKKPGASVKVSCKASGYDFIRYYMNWVRQAPGQGPEWMGAIDPSDGDTTYGQKFQGRVTLTRDTFTSTVYMELSSLRSEDTAVYYCARDWELTNSYGLDVWGQGTTVTVSS
notes: Human scFv from phage display; not shown: rest of the CAR, hinge domain to CD3-zeta domain
B2: 抗CD123 scFv-C5 (in a CAR on T cells) (scFv)
scFv: NFMLTQPHSVSESPGKTVTLSCTRSSGSIAGSYVQWYQQRPGSSPTTVIFQDNQRPSGVPDRFSGSIDKSSNSASLTISGLKTEDEADYYCQSYDSNNQVFGGGTKLTVLGGGGSGGGGSGGGGSEVHLVESGGGVVRPGGSLRLSCAASGFTFGDYGMSWVRQAPGKGLEWVSGINWNGGRTGYADSVKGRFTISRDNAKNSLYLQMNSLRAEDTALYYCARARGSGSYFGYMDVWGKGTTVTVSS
notes: Human scFv from phage display; also called 抗-CD123-C5; not shown: rest of the CAR, hinge domain to CD3-zeta domain
B3: 抗CD123 scFv-C2 (in a CAR on T cells) (scFv)
scFv: QSVVTQPPSVSAAPGQKVTISCSGSSSNIGNNYVSWYQQFPGTAPKLLIYDNNKRPSGIPDRFSGSKSGTSGTLGITGLQTGDEADYYCVTWDTSLSAGVFGGGTKLTVLGGGGSGGGGSGGGGSQITLKESGGGLVKPGGSLRLSCAASGFTFSNAWMSWVRQAPGKGLEWVGRIKSKTDGGTTDYAAPVKGRFTISRDDSKNTLYLQMNSLKTEDTAVYYCTTDPHGYYYGMDVWGQGTTVTVSS
notes: as for B1
B4: 抗CD123 scFv-C30 (in a CAR on T cells) (scFv)
scFv: AIRLTQSPSSLSASVGDRVTITCQASQNINNYLNWYQQKSGKAPKLLIYDASNLEAGVPSRFSGSASGTDFTFTISSLQPEDIATYYCQQNDNLPLTFGQGTRLEIKGGGGSGGGGSGGGGSEVQLVESGGGVVRPGGSLRLSCAASGFTFGDYGMSWVRQAPGKGLEWVSGINWNGGSTGYADSVKGRFTISRDNAKNSLYLQMNSLRAEDTALYYCARDRAPDYGDYLQVGTTDYWGQGTLVTVSS
notes: as for B1
B5: 抗CD123 scFv-C6 (in a CAR on T cells) (scFv)
scFv: SYELTQPPSVSVSPGQTARIPCSGADLGDQYVSWYQHQPGQSPLLVIYEDDKRPSGIPERFSGSNSGNTATLTISGTQAMDEADYYCQAWDGNAAIFGGGTKLTVLGGGGSGGGGSGGGGSQVQLVQSGGGSVQPGGSLRLSCAASGFTFTRYSMNWVRQAPGKGLEWVSYISSSSSTIYYADSVKGRFTISRDNAKNSLYLQMNSLRDEDTAVYYCARDGYGGNSDYYGMDVWGQGTTVTVSS
notes: as for B1
B6: 抗CD123 scFv-C11 (in a CAR on T cells) (scFv)
scFv: QSVVTQPPSASGTPGQRVTISCSGSSSNIGSNYVYWYQQLPGTAPKLLIYRNNQRPSGVPDRFSGSKSGTSASLAISGLRSEDEADYYCAAWDDSLSGYVFGTGTKLTVLGGGGSGGGGSGGGGSEVQLVESGGGLVQPGRSLRLSCTASGFTFGDYAMSWVRQAPGKGLEWVGFIRSKAYGGTTEYAASVKGRFTISRDDSKSIAYLQMNSLKTEDTAVYYCTRDIGYYGSGSYSPFDYWGQGTLVTVSS
notes: Human scFv from phage display; also called 抗-CD123-C11; not shown: rest of the CAR, hinge domain to CD3-zeta domain
B7: 抗CD123 scFv-C29 (in a CAR on T cells) (scFv)
scFv: B6 scFv with S2P, V4L, L107V, Q128H
notes: as for B1
B8: 抗CD123 scFv-C18 (in a CAR on T cells) (scFv)
scFv: QSALTQPASVSGSPGQSITISCTGTSSDVGGYNYVSWYQQHPGKAPKLMIYDVSNRPSGVSNRFSGSKSGNTASLTISGLQAEDEADYYCSSYTSSSTLFVFGTGTELTVLGGGGSGGGGSGGGGSQVQLQESGPGLVKPSQTLSLTCTVSGGSISSGDYYWSWIRQSPGKGLEWIGYIHSTGTTYYNPSLKSRLTISLDTSKNQFSLKLNSVTAADTAVYYCARGGVGTIFNYWGQGTLVTVSS
notes: as for B1
B9: 抗CD123 scFv-C14 (in a CAR on T cells) (scFv)
scFv: DIRMTQSPSSLSASVGDRVTITCQASQDITNYLNWYHQKPGKAPKLLIYDASNLETGVPSRFSGGGSGTDFTFTISSLQSEDIGTYYCQQYDDLPLTFGGGTKVEIKGGGGSGGGGSGGGGSQVQLQESGPGLVKPSETLSLTCTVSGGSISSSSHYWGWIRQPPGKGLEWIGSIYYSGSTYYNPSLKSRVTISVDTSKNQFSLKLSSVTAADTAVYYCARRVWVWPTYGMDVWGQGTTVTVSS
notes: as for B1
B10: 抗CD123 scFv-C26 (in a CAR on T cells) (scFv)
scFv: QSVLTQPPSASGTPGQRVTISCSGSRSNIGSNTVSWYQQFPGTAPKLLIYLNNQRPSGVPDRFSGSKSGTSASLAISGLQSEDEAEYYCATWDDDLNGVFGGGTKLTVLGGGGSGGGGSGGGGSEVQLVESGGGLVQPGGSLRLSCAASGFTLSNFEMNWVRQAPGRGLEWVSYISATTSATSYADSVKGRFTISRDNAKNSLYLQMNSLRAEDTAVYYCARVRDGYNFGYYYYYMDVWGKGTTVTVSS
notes: as for B1
B11: 抗CD123 scFv-C17 (in a CAR on T cells) (scFv)
scFv: QSALTQPASVSGSLGQSITISCTGTSSDVGTYDYVSWYQQHPGKAPKLMIYDVTYRPSGVSHRFSGSKSGNTASLTISGLQADDEADYYCQQYNNWPPRYTFGQGTKVEIKGGGGSGGGGSGGGGSQVQLVQSGAEVEKPGASVKLSCTASGYNFNSYYMHWVRLTPGQGLEWMGLINPTNGRTTYAQKFQGRVTMTGDTSTRTVYLALSSLRSEDSALYYCARGSPPHIFDPDFDYWGQGTLVTVSS
notes: as for B1
B12: 抗CD123 scFv-C15 (in a CAR on T cells) (scFv)
scFv: DIQLTQSPSTLSASVGDRVTISCRASQSISSWLAWYQHKPGKAPKLLIYKTSALEDGVPSRFSGSGSGTEFTLTISSLQPDDFATYFCLHYGSYTFGQGTKVDIKGGGGSGGGGSGGGGSEVQLVESGGGLVNPGGSLRLSCEASGFTFSDYYISWIRQAPGKGLEWISYISGSSTYTDFADSVKGRFTISRDNAKNTVFLQMNSLRAEDTAVYYCARDRRGRFDPWGQGTLVTVSS
notes: as for B1
B13: 抗CD123 scFv-C9 (in a CAR on T cells) (scFv)
scFv: QSVLTQPPSASGTPGQRVTISCSGSNSNIENNYVYWYQHLPGTAPKRLIYQNNQRPSGVPDRFSGSKSGTSASLAISGLRSEDEADYYCSAWDDSLSAWVFGGGTELTVLGGGGSGGGGSGGGGSEVHLVESGGGLVQPGRSLRLSCTASGFTFGDYAMNWVRQAPGKGLEWVGFIRSKASGGTTDYAASVKGRFTISRDDSKSIAYLQMNSLKTEDTAVYYCTRALRGYSYGLFDYWGQGTLVTVSS
notes: as for B1
B14: 抗CD123 scFv-C16 (in a CAR on T cells) (scFv)
scFv: QSVVTQPPSASGTPGQRVTISCSGSSSNIEGNTVSWYQQFPGAAPKLLIYSNSYRASGVPDRFSGSKSGTSASLAISELQSEDEADYYCSAWDDSLNGPVFGGGTELTVLGGGGSGGGGSGGGGSQVQLQESGGGLVQPGGSLRLSCAASGFTFSSYSMNWVRQAPGKGLEWVSYISSSSSTIYYADSVKGRFTISRDNAKNSLYLQMNSLRAEDTAVYYCARDIYGDWDYYYYGMDVWGQGTTVTVSS
notes: as for B1

Target: T1, CD123-Fc重组蛋白
Assay: FACS staining of CAR T cells with CD123-Fc recombinant protein

| Binder | binding result |
| --- | --- |
| B1 | binds |
| B2 | binds |
| B3 | binds |
| B4 | binds |
| B5 | binds |
| B6 | binds |
| B7 | binds |
| B8 | binds |
| B9 | binds |
| B10 | binds |
| B11 | binds |
| B12 | binds |
| B13 | binds |
| B14 | binds |
